Test results taken from patent US20210332142A1 (Genentech, published 2021).

Experiments:
[1] = target: T1, recombinant human Tie2 extracellular domain (human, UniProt Q02763 23-748); test: SPR, IgG captured, 37C
T1 construct: whole entry named; also called Recombinant human Tie2 ECD; hu Tie2
Procedure: (§1) Antibodies were screened for binding to recombinant human and cyno Tie2 using a Biacore T200 instrument (GE Life Sciences). Briefly, a human antibody capture chip was generated using a Series S CM5 chip, a human antibody capture kit, and an amine coupling kit (GE Life Sciences). Antibodies diluted to 5 μg/ml were captured using a flow rate of 10 μl/minute and a contact time of 20 seconds. Binding of 300 nM and 1500 nM recombinant human and cyno Tie2 extracellular domain to the captured antibodies was analyzed at 37° C. using a single cycle kinetics method with a flow rate of 50 μl/minute, a contact time of 60 seconds and a dissociation time of 120 seconds. Between cycles, the chip was regenerated using 3M MgCl₂ injected for 30 seconds at 30 μl/minute. Data were evaluated using Biacore T200 Evaluation software (GE Life Sciences). Kinetic constants were obtained using a 1:1 binding model with the parameter RI set to zero. Selected antibodies (Table 7A-7B; ch denotes rabbit Abs; TEK denotes rat Abs) were taken forward for secondary activity screening in Fab-NDK format (see Example 8 below).

[2] = target: T2, recombinant cyno Tie2 extracellular domain (cynomolgus monkey, UniProt Q02763 23-748 (human entry)); test: SPR, IgG captured, 37C
T2 construct: also called Recombinant cyno Tie2 ECD; cy Tie2
T2 chain: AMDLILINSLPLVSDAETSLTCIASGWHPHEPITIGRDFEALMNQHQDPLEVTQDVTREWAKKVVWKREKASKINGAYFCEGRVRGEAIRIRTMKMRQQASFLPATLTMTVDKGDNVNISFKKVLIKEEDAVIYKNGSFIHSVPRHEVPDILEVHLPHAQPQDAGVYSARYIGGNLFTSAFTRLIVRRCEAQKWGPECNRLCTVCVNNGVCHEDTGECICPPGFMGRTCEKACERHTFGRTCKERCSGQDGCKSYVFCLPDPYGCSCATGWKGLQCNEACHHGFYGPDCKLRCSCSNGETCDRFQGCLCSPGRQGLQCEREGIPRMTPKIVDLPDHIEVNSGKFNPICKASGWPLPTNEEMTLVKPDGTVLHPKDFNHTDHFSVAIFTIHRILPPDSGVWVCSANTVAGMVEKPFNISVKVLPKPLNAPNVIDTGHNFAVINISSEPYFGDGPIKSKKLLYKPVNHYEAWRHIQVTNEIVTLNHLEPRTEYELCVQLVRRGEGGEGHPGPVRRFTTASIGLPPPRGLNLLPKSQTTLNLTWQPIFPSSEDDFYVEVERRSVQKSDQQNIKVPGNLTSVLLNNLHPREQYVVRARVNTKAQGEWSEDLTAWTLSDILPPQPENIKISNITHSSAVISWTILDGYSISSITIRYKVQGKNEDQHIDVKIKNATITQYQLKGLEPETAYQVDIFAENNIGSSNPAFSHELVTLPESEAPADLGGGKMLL
Procedure: as §1

[3] = target: T2, recombinant cyno Tie2 extracellular …; test: SPR, IgG captured, 37C
Procedure: A human antibody capture chip was prepared using a Series S CM5 chip (GE Life Sciences), a human antibody capture kit (GE Life Sciences) and an amine coupling kit (GE Life Sciences). Antibodies diluted to 5 μg/ml in running buffer (10 mM HEPES, 150 mM NaCl, 0.05% Tween 20, 1 mM EDTA, pH 7.4) were non-covalently captured using a contact time of 20 seconds and a flow rate of 10 μl/minute. Binding to 300 nM and 1500 nM recombinant Tie2 was analyzed at 37° C. using a Single Cycle Kinetics method with a contact time of 60 seconds, a dissociation time of 120 seconds and a flow rate of 50 μl/min. Between cycles, the surface was regenerated by a 30 second injection of 3M MgCl₂ at a flow rate of 30 μl/min. Values for antibody capture levels and analyte binding levels were obtained from the Report Point Table (Biacore Evaluation Software v3.0, GE Life Sciences). […] Table 16: Experiment A; Table 17: Experiment B.

[4] = target: T1, recombinant human Tie2 extracellular …; test: SPR, IgG captured, steady state analysis
Procedure: (§2) Binding to recombinant human and cyno Tie2 was analyzed using a high performance multi-cycle kinetics format with a contact time of 60 seconds, a dissociation time of 60 seconds, a flow rate of 100 μl/minute and Tie2 concentrations of 5 μM, 2.5 μM, 1.25 μM, 625 nM, 313 nM and 156 nM. Tie2 concentrations of 5 μM, 2.5 μM and 1.25 μM were injected twice. Results were analyzed using Biacore T200 Evaluation Software v3.0 (GE Life Sciences). Results from all three surface densities were analyzed together using the 1:1 Binding model with multiple Rmax and the RI parameter set to zero.

[5] = target: T2, recombinant cyno Tie2 extracellular …; test: SPR, IgG captured, steady state analysis
Procedure: as §2

[6] = target: T1, recombinant human Tie2 extracellular …; test: SPR multi-cycle kinetics, IgG captured, kinetic analysis
Procedure: Binding to 300 nM and 1500 nM recombinant Tie2 was analyzed at 37° C. using a Single Cycle Kinetics method with a contact time of 60 seconds, a dissociation time of 120 seconds and a flow rate of 50 μl/min. Between cycles, the surface was regenerated by a 30 second injection of 3M MgCl₂ at a flow rate of 30 μl/min. Values for antibody capture levels and analyte binding levels were obtained from the Report Point Table (Biacore Evaluation Software v3.0, GE Life Sciences). […] Table 16: Experiment A; Table 17: Experiment B.
as §2

[7] = target: T2, recombinant cyno Tie2 extracellular …; test: SPR multi-cycle kinetics, IgG captured, kinetic analysis; cyno Tie2; kinetic analysis
Procedure: as §2

[8] = target: T1, recombinant human Tie2 extracellular …; test: SPR multi-cycle kinetics, IgG captured, kinetic analysis; human Tie2; kinetic analysis
Procedure: as §2

mouse Tie2 ECD5 = target: T3, mouse Tie2 ECD5 (mouse, UniProt Q02858 23-442, limits assumed); test: ELISA: mouse Tie2 ECD5 construct immobilized, serial dilutions of IgG, anti-huFc-HRP
T3 construct: domain: ECD5 (Ig1, Ig2, EGF and Ig3 domains); also called mECD5
Source text: Plates were washed and detected with anti-huFC-conjugated HRP secondary antibody using the methods above.

B1: Tie2.1 (antibody, human IgG1, V domains shown)
VH: EVQLVESGGGLVQPGGSLRLSCAASGFTFSNTDISWVRQAPGKGLEWVGRISPSDGNTYYADSVKGRFTISADTSKNTAYLQMNSLRAEDTAVYYCARRTRWASWAMDYWGQGTLVTVSS
VL: DIQMTQSPSSLSASVGDRVTITCRASQDVSTAVAWYQQKPGKAPKLLIYSASFLYSGVPSRFSGSGSGTDFTLTISSLQPEDFATYYCQQSYTTPPTFGQGTKVEIKR
notes: human IgG1 in all later assays; also called Ab1; Tie2.1.M100c
- Kd [1]: 3000 nM
- koff [1]: 0.3 s⁻¹
- kon [1]: 100000 M⁻¹ s⁻¹
- Kd [2]: 4000 nM
- koff [2]: 0.3 s⁻¹
- kon [2]: 90000 M⁻¹ s⁻¹
- Normalized Binding Signal, 300 nM [3]: 0.08
- Kd [4]: 3000 nM
- Kd [5]: 3000 nM
- koff [6]: 0.45 s⁻¹
- kon [6]: 180000 M⁻¹ s⁻¹
- Kd [7]: 3000 nM
- Kd [8]: 3000 nM
- binding result (mouse Tie2 ECD5): binds
